In patent US20070298041A1 (published 2007):

T1: human TNFR1 (biotinylated, immobilized on SPR chip) (human (Homo sapiens), UniProt P19438 30-211, biotinylated (site not stated))
T1 construct: also called hTNFR1
T1 sequence: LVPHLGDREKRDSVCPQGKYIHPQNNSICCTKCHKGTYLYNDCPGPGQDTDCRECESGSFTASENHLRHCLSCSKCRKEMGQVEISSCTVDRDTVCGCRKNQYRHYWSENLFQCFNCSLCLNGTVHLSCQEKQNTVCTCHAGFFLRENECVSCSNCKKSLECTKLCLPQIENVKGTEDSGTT

T2: mouse TNFR1 (biotinylated, immobilized on SPR chip) (mouse (Mus musculus), UniProt P25118 30-212, biotinylated (site not stated))
T2 construct: also called murine TNFR1; mTNFR1
T2 sequence: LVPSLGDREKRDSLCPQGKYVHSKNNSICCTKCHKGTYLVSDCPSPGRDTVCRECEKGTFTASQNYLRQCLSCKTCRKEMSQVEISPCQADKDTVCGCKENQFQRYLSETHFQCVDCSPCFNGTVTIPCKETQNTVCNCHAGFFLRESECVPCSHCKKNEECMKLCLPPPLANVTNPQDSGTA

B1: TAR2h-205 (other)
VH: EVQLLESGGGLVQPGGSLRLSCAASGFTFVKYSMGWVRQAPGKGLEWVSQISNTGGHTYYADSVKGRFTISRDNSKNTLYLQMNSLRAEDTAVYYCAKYTGRWEPFDYWGQGTLVTVSS
notes: Domain antibody (dAb), a single immunoglobulin VH variable domain; also called anti-human TNFR1 dAb
B2: TAR2m-21-23 (other)
VH: EVQLLESGGGLVQPGGSLRLSCAASGFTFNRYSMGWLRQAPGKGLEWVSRIDSYGRGTYYEDPVKGRFSISRDNSKNTLYLQMNSLRAEDTAVYYCAKISQFGSNAFDYWGQGTQVTVSS
notes: Domain antibody (dAb), a single immunoglobulin VH variable domain; also called anti-mouse TNFR1 dAb

How the values were obtained:
[1] = target: T1, human TNFR1 (biotinylated, immobilized …); assay: SPR (BIACORE 3000), biotinylated human TNFR1 on streptavidin chip, competition with chimeric TNFR1 proteins
Procedure: (§1) If the dAb is pre-incubated and equilibrated with a chimeric molecule that comprises the domain(s) of TNFR1 that the particular dAb binds, then flow of this mixture over the TNFR1 surface will produce a smaller SPR signal relative to the dAb alone.
(§2) The choice of TNFR1 surface is determined by the species specificity of the anti-TNFR1 dAb to be tested. Therefore anti-human TNFR1 dAbs were evaluated using a surface coated with human TNFR1 and anti-mouse TNFR1 dAbs were evaluated using a chip coated with mouse TNFR1.
(§3) Biotinylated TNFR1 was diluted in the appropriate SPR buffer and run across a streptavidin (SA) sensor chip in a BIACORE 3000 SPR instrument (Biacore International AB, Uppsala, Sweden). A low flow-rate (5-10 μl/minute) was used in order to maximise the contact time between the biotinylated TNFR1 and the streptavidin surface. Flow continued until the streptavidin surface was saturated with biotinylated material, in order to generate a chip with maximal TNFR1 surface.

[2] = target: T2, mouse TNFR1 (biotinylated, immobilized …); assay: SPR (BIACORE 3000), biotinylated mouse TNFR1 on streptavidin chip, competition with chimeric TNFR1 proteins
Procedure: as §1, §2, §3

Binder | binding result [1] | binding result [2]
B1 | binds | –
B2 | – | binds
